From publication PMC12796476 (Nature Communications, 2025)

Assays:
[1] = biological target: Venus-tagged NEDD4-1 HECT domain (HECT4-1-Ven) (Homo sapiens, NEDD4, UniProt P46934); experiment: FRET or BRET
[2] = biological target: full-length NEDD4-2-Venus (Homo sapiens, NEDD4L, UniProt Q96PU5, strain); experiment: FRET or BRET
[3] = biological target: WW4-HECT4-2 domain of NEDD4-2, purified (Homo sapiens, NEDD4L (Q96PU5-1), UniProt Q96PU5-1); experiment: BLI
WW4-HECT4-2 domain of NEDD4-2, purified, sequence (Q96PU5 541-975, one chain of several): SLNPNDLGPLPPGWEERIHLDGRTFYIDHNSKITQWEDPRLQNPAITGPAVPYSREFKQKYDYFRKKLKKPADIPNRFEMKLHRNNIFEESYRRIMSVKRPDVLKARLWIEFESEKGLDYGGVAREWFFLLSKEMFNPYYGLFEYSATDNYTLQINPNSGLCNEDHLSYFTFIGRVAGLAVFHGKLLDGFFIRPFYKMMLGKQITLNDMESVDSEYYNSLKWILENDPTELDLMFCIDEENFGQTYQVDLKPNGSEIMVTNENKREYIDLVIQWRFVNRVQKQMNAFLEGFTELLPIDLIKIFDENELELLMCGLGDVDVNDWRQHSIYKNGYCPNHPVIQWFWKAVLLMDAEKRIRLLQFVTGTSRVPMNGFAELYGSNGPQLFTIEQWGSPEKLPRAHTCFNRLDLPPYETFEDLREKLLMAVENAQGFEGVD

full-length NEDD4-2-Venus, sequence (Q96PU5 whole entry, looked up, change not shown): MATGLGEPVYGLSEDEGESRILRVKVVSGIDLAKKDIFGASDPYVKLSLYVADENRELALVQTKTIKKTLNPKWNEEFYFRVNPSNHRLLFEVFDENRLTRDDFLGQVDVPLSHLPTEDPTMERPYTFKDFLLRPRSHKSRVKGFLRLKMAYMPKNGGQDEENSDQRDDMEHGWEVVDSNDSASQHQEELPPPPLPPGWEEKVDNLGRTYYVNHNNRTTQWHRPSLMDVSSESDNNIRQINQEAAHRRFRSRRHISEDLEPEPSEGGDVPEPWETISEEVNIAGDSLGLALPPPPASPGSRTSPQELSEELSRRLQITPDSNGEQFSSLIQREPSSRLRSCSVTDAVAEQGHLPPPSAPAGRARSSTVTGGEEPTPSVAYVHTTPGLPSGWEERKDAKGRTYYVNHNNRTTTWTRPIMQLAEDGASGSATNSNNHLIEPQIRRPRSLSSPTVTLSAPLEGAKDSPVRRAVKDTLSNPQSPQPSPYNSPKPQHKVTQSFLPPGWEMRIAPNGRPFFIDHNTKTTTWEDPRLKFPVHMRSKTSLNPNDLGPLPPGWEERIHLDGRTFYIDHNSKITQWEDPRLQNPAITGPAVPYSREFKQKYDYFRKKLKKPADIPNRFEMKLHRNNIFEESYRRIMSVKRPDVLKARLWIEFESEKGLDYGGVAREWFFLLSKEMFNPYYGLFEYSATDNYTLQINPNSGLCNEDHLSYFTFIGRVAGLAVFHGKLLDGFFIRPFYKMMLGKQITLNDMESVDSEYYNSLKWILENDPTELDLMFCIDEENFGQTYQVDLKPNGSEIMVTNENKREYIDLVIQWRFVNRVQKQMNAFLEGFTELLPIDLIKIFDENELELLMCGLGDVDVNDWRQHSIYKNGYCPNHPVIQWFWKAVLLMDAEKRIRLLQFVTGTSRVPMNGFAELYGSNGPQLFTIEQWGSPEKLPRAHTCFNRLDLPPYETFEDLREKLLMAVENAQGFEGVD
Venus-tagged NEDD4-1 HECT domain (HECT4-1-Ven), sequence (P46934 984-1318): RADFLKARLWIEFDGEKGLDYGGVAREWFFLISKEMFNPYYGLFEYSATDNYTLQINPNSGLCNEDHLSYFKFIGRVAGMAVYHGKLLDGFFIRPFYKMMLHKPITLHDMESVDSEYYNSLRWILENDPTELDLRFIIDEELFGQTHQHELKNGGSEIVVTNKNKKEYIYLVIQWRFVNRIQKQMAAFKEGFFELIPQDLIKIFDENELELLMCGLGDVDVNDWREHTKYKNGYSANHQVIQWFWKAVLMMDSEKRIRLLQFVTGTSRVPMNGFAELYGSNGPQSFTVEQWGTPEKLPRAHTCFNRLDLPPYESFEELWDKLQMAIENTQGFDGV

Binder	binding result [1]	binding result [2]	Kd [3] [nM]
Cer-nb.C11 (VHH) VHH: QVQLQESGGGLVQAGGSLRLSCAASGNISDVWYMGWYRQAPGKEREFVAGIAYGTSTYYADSVKGRFTISRDNAKNTVYLQMNSLKPEDTAVYYCAVIITRFVSYPRQHTYWGQGTQVTVSS	no binding	binds	–
nb.C11 (HIS-tagged, purified) (VHH) VHH: QVQLQESGGGLVQAGGSLRLSCAASGNISDVWYMGWYRQAPGKEREFVAGIAYGTSTYYADSVKGRFTISRDNAKNTVYLQMNSLKPEDTAVYYCAVIITRFVSYPRQHTYWGQGTQVTVSS	–	–	2
